Laboratory results taken from the DeepSol protein solubility set.

Experiment: soluble on expression in E. coli; label from the status in PepcDB or PDB records

| Sequence | soluble on expression in E. coli |
| --- | --- |
| MGAGESSMALEKHLFDLKFAAKQLEKNAQRCEKDEKVEKDKLTAAIKKGNKEVAQVHAENAIRKKNEAVNYIKMAARIDAVAARVQTAATQKRVTASMSGVVKAMESAMKSMNLEKVQQLMDRFERDFEDLDVTTKTMEKTMDGTTVLNAPKSQVDALIAEAADKAGIELNQELPSNVPTALPTGTQAVSEDKDLTERLAALRNM | not soluble |
| GPGSMGRNKKSKATAHAQACSDGEREEEHGAVPTTTLPARAEGCEEENGASAAAADGAQGTPDHHSGRCSERGRDSDDDAPKTKKEYRGNRLKKLEVQRKKGKGKGANEDDKAEEAAREGDAHEEPLVVTRQRAVEVLYCPICTFPAEMCEFSGIVEKCRPWLLEHAADLADAEERGRKRRILTEKDRLEAMLEGRGVKKALERIVVLEVEKRTGRRMITSVFGMDLFGFNLKDVSRDWRKRFSCGAGVRAAEEGKHQDCIDIQGNVVDQLADMLITKYKIPKESVYLMEGKKKVPYPY | not soluble |
| MSNEPESTQHKSALQGLKGYLSSQILGQEKLVDRLLIALLADGHLLVEGAPGLAKTKAIKDLAEGLEAEFHRIQFTPDLLPADITGTEIYRPETGTFVFQQGPIFHHLVLADEINRAPAKVQSALLEAMAERQVSVGRSTYDLPQLFLVMATQNPIEQEGTYPLPEAQLDRFLMHVKIGYPEASVERRILQQARGEALNGEARPERRVTQETIFAARQEILGLYMADAVEEYLVQLIMATRTPAKHDAELAEWISYGASPRGSIALDRCARAHAWLGGRDFVSPEDIQAVLFDVLRHRLILTFEAEAAGIDQDRVVQRILDVVAVALEHHHHHH | soluble |
| MSLGQFWHVTDLHLDPTYHITDDHTKVCASSKGANASNPGPFGDVLCDSPYQLILSAFDFIKNSGQEASFMIWTGDSPPHVPVPELSTDTVINVITNMTTTIQSLFPNLQVFPALGNHDYWPQDQLPVVTSKVYNAVANLWKPWLDEEAISTLRKGGFYSQKVTTNPNLRIISLNTNLYYGPNIMTLNKTDPANQFEWLESTLNNSQQNKEKVYIIAHVPVGYLPSSQNITAMREYYNEKLIDIFQKYSDVIAGQFYGHTHRDSIMVLSDKKGSPVNSLFVAPAVTPVKSVLEKQTNNPGIRLFQYDPRDYKLLDMLQYYLNLTEANLKGESIWKLEYILTQTYDIEDLQPESLYGLAKQFTILDSKQFIKYYNYFFVSYDSSVTCDKTCKAFQICAIMNLDNISYADCLKQLYIKHNYEGHHHHHH | not soluble |
| MDDLTIEILTDDADYDLQRFDCGEEALNLFLTTHLVRQHRNKILRAYILCRNTPERQVLGYYTLCGSCFERAALPSKSKQKKIPYKNIPSVTLGRLAIDRSLQGQGWGATLVAHAMNVVWSASLAVGIHGLFVEALNEKAHTFYKSLGFIPLVGENENALFFPTKSIELLFTQSD | not soluble |
| MDASKSLPIRKHTTLLNRLPETRFATQLDKAKANWIVFAEYLSPRHFEDIDFFTGFYNPVLETWKVGQYEVALMAGELTSQHETILKSLNIDYASLNEVPDLSAPG | not soluble |
| MSKTAAITIDTPGADDFEPHRRHLYGLAYRMLGSWSEAEDIVQETWLRWREIDPATLDNARAFLSRIATRLCLDVLKSARVRRQVYVGPWLPEPLPDAQAYAGAAPGEIAHDVSVALMLALERLSASERAAFLLHDVFDVPFAEIAGTLGRTEAGCRQLAARARNRVRESRPRFAVEESEGIRLARAFIDAAQHGDVDVLRQLLADDAVLHSDGGGKKLAFMRPILGRANIVRAFAGLARKGQSDLSSVRIVQLNGMPAIYGIERDGLPRTISLGVCGGRIVRVYIMRNPDKLAHLARFTG | not soluble |
| MEHLGKVFREFRTSGNYSLKEAAGESCSTSQLSRFELGESDLAVSRFFEILDNIHVTIENFMDKARNFHNHEHVSMMAQIIPLYYSNDIAGFQKLQREQLEKSKSSTTPLYFELNWILLQGLICQRDASYDMKQDDLGKVADYLFKTEEWTMYELILFGNLYSFYDVDYVTRIGREVMEREEFYQEISRHKRLVLILALNCYQHCLEHSSFYNANYFEAYTEKIIDKGIKLYERNVFHYLKGFALYQKGQCKEGCKQMQEAMHIFDVLGLPEQVAYYQEHYEKFVKS | not soluble |
| MSLQISPETQLFIREHQTDDVRALALQARKYPNVDMPTAITQIAGRQVAAEKIPSWRDTDDIWYPKHLSLEQCSSEVTARYKATLLKGNSLTDLTGGFGIDCAFLAARFKSATYVERQQELCEIAAHNFPILNLNHINVKNEDGVSYLQAMSPVDCIFLDPARRNEHGGKTVAISDCEPDVAELEELLLNKAEQVMVKLSPMLDLSLALKELQHVQEVHIISANNECKELLLILGQASAEEISIHCVNLPTRGAQEEQHFVFTREQEQCSECNYTDTLENYLYEPNASLLKAGAFRSIASAFPVKKLHPNSHLYTSDVLVESFPGRAFHIISQCSLNKKELKESLGDLKKANITVRNFPATVAELRKRIKLSEGGDTYLFASTLNNGQKVLIRCEKAEGHHHHHH | soluble |
| SLHSMTAFAADEHLTPWGLLACELRSVNHRFLDIVIRLPEELRALESQLRERVAARVSRGKLDLTVRLSPQEIHTGKLVVNELLLSHLSTLALRLSAQFPALRVTFAELLQIPGVLKGEQIDMTTLQGHAVALLDKVLDNFIATREREGLKMQAMIAQRASAIERIVGEVRTLIPTIREGQHNKLNARMNHLSYPVDHGRIEQELVLWLQ | not soluble |
| MGSDKIHHHHHHMAFIKPEQQFNPDALHNLVIGIAADMGKHDSGMHHHHKAQLLYASAGCMRFSLADTQVVLPPTRAAWLPAGVEHHVTMRNVVAYRSLYFEPEAVASLPSEVTIFHVNPLLKALIDTMSYWPWNKPRYSQHNAFALFCEELENAKAENLALPLPQDKRLQTWLKQVLQQEMQPANLKEMAIEIGASERTISRIFSSQTGMAYQAWRQQWRLLSAIEQLAAGTSVAQAGFNLQFSSDSAFISFFKQYTGTTPAQYFK | not soluble |
| MSLDRLKQSLLDAPIIEKDGYHYFVHPISDGVPMLEPELLREIVIRIIRKAELDEVDKIVTPAAMGIHISTAVSLMTDIPIVVIRKREYGLPGEVALSQETGYSENEMYINDVHEGDRVLVLDDVLSTGGTLRAITDALEQTGADVADVLAVIKKAGPNELDDTDMDVRTLINVDEGHHHHHH | soluble |
| MSLSTPIQAEPPNLSLIRKEIKNYYDSGLYYHELERTIKLAQEYIHQQYLINKNNKHPQKLAIVLDIDETSLSNYDKMVKRDFTGSKEQIHKEILAANSPAIKPMLTLYKNALKQGIKVFFVTGRQESERDATRANLIKAGYTKWAGLYLRPNGYSSPSIIPFKSKAREMIAKKGYTIIASIGDQCSDIQGGYTKKGFKLPNPFYYLPEGHHHHHH | soluble |
| MVTFNCEVCNDTVPKKNTEKHYYRCPNAYYTCIDCSKTFEDGVSYKNHTSCISEDEKYQKALYKGNKKQKQKQQQKQQQKQHQHQPVATPAKKVEKPVIKKAEKVEKTSNGIELHKGKSLYKILKTMKDKGAKKTFLKSLVVDSEGQIRYAKE | soluble |
| MGSDKIHHHHHHMASDIHTLSDSLLWKRFLEGDSSAYSQIYNQTVQELFRYGLLYTSDRELVKDCIHDVFVKIYTNRAKLTPTDNIIAYLMVALKNTLFNALKKTSDSFSLDEADEKEDQSEEHFSTPETIYINKEQEKNTHMKVHAMMSSLTTRQREIVYYRYIKDMSIDEISKITDMNYQSVSNSIQRALGRVRNLFKRE | not soluble |
| MNQKAVILDEQAIRRALTRIAHEMIERNKGMNNCILVGIKTRGIYLAKRLAERIEQIEGNPVTVGEIDITLYRDDLSKKTSNDEPLVKGADIPVDITDQKVILVDDVLYTGRTVRAGMDALVDVGRPSSIQLAVLVDRGHRELPIRADYIGKNIPTSKSEKVMVQLDEVDQNDLVAIYENE | soluble |
| MSLSSGRTVPTRSHGLGKEGVSTTGASQVEFGDPELTARINDAMVQVEELLHTELSSGEDFLVDIVMHLTRAGGKRFRPMFALLASEFGEKPLSENVIKAAVVVEITHLATLYHDDVMDEASMRRGVPSANARWDNSVAILAGDILLAHASGLMSQLGTDTVAHFAETFGELVTGQMRETVGPRDTDPIEHYTNVIREKTGVLIASAGYLGAMHAGAAPEHIDALKNFGAAVGMIFQIVDDIIDIFSETHESGKTPGTDLREGVFTLPVLYALREDTPVGAELRDILTGPLEDDETVNHVLELLSQSGGRQAALDEVYRYMDIANAELDRLPDSTVKEALRNLATFTVKRVGEGHHHHHH | soluble |
| MGSDKIHHHHHHMMITSKSLNRKSIPAPLPSIAEDVLEGLSRTPKSLPPKLLYDATGSDLFEQITCLPEYYPTRTEAGILTVHAEEICSHLRRNVSVSELGAGTATKTRILLRSLVRQQFGVNYFPLDVSDAALQLAKDEVESELSRVKVHPQLGDFDNLTFLEHQSPPRLVLYIGSSIGNLENDAAIALLQNIARNLSTGDKLLLGADLVKDINVMHAAYNDEAGVTALFNKNLLVRINRELSGHFDPESFCHISFWNEAESRIELHLESACRQAVRIDTLDMTFHFDRGERIHTENSYKYTVEHLENLLRSGGFQVEHTWTDPDSWFAVSLGVIT | not soluble |
| MSLGAGQPLGGYAEDLEGRQADLPKYSRANVRIVFAAVFPESNVYQGGEGYPTPSSSRLLLLDQVKTYYALSSIHGVEIIESWRSAQEVLEAPRWRLGLLLHLEGADALADILDLELLHRLGFRSLGLTWNHDNRWAASCKTRRDYGLTQSGEDLVKKAAELGVIIDLAHASDKTVADAASASPKPVIVSHANFRWKVDSPRNVGEEAVEAVVSKGGVIGYSLISTLITRGRHPTLHDVASQMAEFVEVYGHRHLAIGTDYHGLLDIRPPTGLESIDRLPRLLEALADAGLSDRQIEAIAYGNIARVIREVLPGSEGHHHHHH | soluble |
| GLFQFLRIVMRPSDQLLGLDEKGTIRTIDETGKASPIPGMVIYRFNSPLTYFNAPYFKRRLLEHAEQNKDVSCVVVDAVSSFTHLDLSVMATLADIHEVLKKRGIRLVLAGRKRRLRQWCELTGISTSEGGILLRADMYLAIKLSGSYLSAVGEGIVPTVQKEPDLEQPPKPIPEVA | not soluble |
| AARPRKNNVSVPNLYPLYSRKVNKVYWRYKHPVTGKFHALGTNEAEAIAIATEANTRLAEQRTRQILAISDRIATSKGKAITTSTWLDRYQAIQDDRLKSGDIRLNTYKQKAKPVSLLRERAGMKLISAVDVRDIAQLLDEYIAAGRPRMAQVVRSVLIDVFKEAQHYGEVPPGYNPALATKQPRRKITRQRLSLEEWKKIFDIADATHRYMGNAMLLALVTGQRLGDISRMKFSDIWDDHLHVIQEKTGSKIAIPLSLRLNAINWSLRDVVARCRDYAVSAYLVHFFRSTSQAERGAQVKANTLTMNFSKARDLARIDWGEGSPATFHEQRSLSERLYKEQGLDTQKLLGHKTQQQTDRYHDDRGKGWSKVAL | not soluble |
| SLNKIKAFYNLPMAYYRLSNFLKHYIDDNTIIICIGTDRCIGDCLGPMVGTMLKEKFFPLNVYGTISEPIHALNIDKKLYKIKKDHTNSTIIGIDACLGDTENIGEIQVRDYAIHPGKGVGKSLPDVGEVSIVGIVDSCESSELFTNRNIRLNLIFEMSKVIVQTIIHSYYLHKTFSDSIFPDSASTLK | soluble |
| MGHHHHHHSHMAERCFQQAIAFQASCAAVEACFQDLELMHRWLNPLLRCRPEGDWNLDRGSRNRFQIQIPLIYPSLECVVCDRAEGLIVWQFEGFFQGTDTWRWWQEGEHTQLDNCFRFRIAKPWVAWGFDRVAAGVTQRDMQAQLQRLKAIAETLPVASTVTDNLP | not soluble |
